In US20250042943A1, “FAP DETECTION” (THE UNIVERSITY COURT OF THE UNIVERSITY OF EDINBURGH, priority 2021, published 2025):
“Also recorded” adds a separate entry of the source. Where a SMILES comes first, the peptide text is derived from it. [ ]: non-standard residue; d: D form. The star is where a group is joined. 5FAM = O=C1OC2(c3ccc(O)cc3Oc3cc(O)ccc32)c2ccc(C(=O)*)cc21; X1 = CN(C)c1ccc(N=Nc2ccccc2C(=O)*)cc1; AEEA = NCCOCCOCC(=O)O

Experiments:
[1] = Toxicity in rats, intravenous (bolus) dosing for 7 days; assay type: in vivo; settings: intravenous (bolus) injection of 0.1 mg for 7 days
Experimental: The potential toxicity of the FAP probe was assessed by dosing rats with an intravenous (bolus) injection of 0.1 mg of the FAP3 probe for 7 days.

[2] = test system: cancer associated fibroblasts (CAFs) from NSCLC patient samples; test: Assessment on cancer associated fibroblasts (CAFs); assay type: cell-based, human; settings: co-incubated with FAP3
Experimental: CAFs were isolated from NSCLC patient samples as previously described methods known in the art. Briefly, tissue samples were minced with forceps and incubated for an hour in prewarmed RPMI media (Gibco) containing collagenase IV [2 mg/ml](Sigma) and DNase [0.2 mg/ml](Sigma). Samples were spun at 350 g for 5 minutes and red blood cells were lysed from samples using RBC lysis buffer (BioLegend) in 10 mls for 10 minutes. Following a further spin at 350 g for 5 minutes, cells were seeded in culture flasks in DMEM containing 10% FCS, 1% Penicillin-Streptomycin, 1% L-Glutamine and 10% Insulin Transferrin Selenium (ITS). 24 hours after seeding, non-adherent cells were washed from the flasks. Cells were maintained by standard cell culture methods and by passage 2, the predominant cell type was CAFs, assessed by flow cytometry markers and morphology. CAFs between passage 4-9 were used to assess FAP probes and confirmed to be FAP^hi by flow cytometry.
CAFs were seeded into 96 well plates in a 100 μl media (complete DMEM as described above) at a density of 1×10^5 cells/ml to form a confluent monolayer within 24 hours. Wells containing cells had media removed and then were washed before buffer (DPBS)+/− inhibitors were added with the imaging probes. Immediately after adding imaging probes, the plate was transferred to the prewarmed spectrophotometer as above and read at 480/530 nm for one hour.

[3] = test system: NSCLC patient tissue samples; test: Fluorescence intensity and lifetime imaging (FLIM, KronoScan) of ex vivo NSCLC tissue; assay type: cell-based, human; settings: VBP (1:1000) added with FAP3; listed as VBP
Experimental: For imaging solutions, varying concentrations of rhFAP were prepared in blackened eppendorfs and FAP3 to a final concentration of 5 μm added and imaged as below. For biological specimens, NSCLC patient tissue samples from surgical resection were used fresh or snap frozen and stored at −80 until required. Small fragments (approx. 4 mm^3) incubated at 37° C. in a 96 well plate in phenyl-red free DMEM (Gibco) containing 10% FCS, 1% Penicillin-streptomycin and 1% L-Glutamine. For the inhibitor fragments VBP (1:1000) was added. Samples were then imaged using a clinically tractable novel fluorescence lifetime imaging system, KronoScan, with an imaging fibre providing a 400×400 um field of view. […] This spectrometer contains a 512 channel single photon avalanche diode (SPAD) sensor, allowing for the rapid collection of time resolved spectral fluorescence lifetime data. Fluorescence intensity and lifetime images were collected at 160×160 pixels over a 498-570 nm spectral range with an exposure time of 13 μs per pixel. […]
For each condition the tumour samples were imaged using a fibre placed at the tip of the tissue (baseline), and then again at 10 minute intervals following the additions of equimolar concentrations of probe+/− Inhibitor. […] Each condition and time-point data for both fluorescence intensity and lifetime were collected. […]

rhFAP = biological target: T1, rhFAP (Homo sapiens, UniProt Q12884); test: Probe cleavage by recombinant human FAP (fluorescence read); assay type: biochemical; settings: for cleavage by rhFAP: probe 5 μM, enzyme 0.1 μg/ml, read 480/530 nm; for signal (relative fluorescence intensity) with rhFAP: comparison between probe iterations; for FAP specificity (over PREP): from recombinant enzyme assessment
T1 sequence (Q12884 1-760): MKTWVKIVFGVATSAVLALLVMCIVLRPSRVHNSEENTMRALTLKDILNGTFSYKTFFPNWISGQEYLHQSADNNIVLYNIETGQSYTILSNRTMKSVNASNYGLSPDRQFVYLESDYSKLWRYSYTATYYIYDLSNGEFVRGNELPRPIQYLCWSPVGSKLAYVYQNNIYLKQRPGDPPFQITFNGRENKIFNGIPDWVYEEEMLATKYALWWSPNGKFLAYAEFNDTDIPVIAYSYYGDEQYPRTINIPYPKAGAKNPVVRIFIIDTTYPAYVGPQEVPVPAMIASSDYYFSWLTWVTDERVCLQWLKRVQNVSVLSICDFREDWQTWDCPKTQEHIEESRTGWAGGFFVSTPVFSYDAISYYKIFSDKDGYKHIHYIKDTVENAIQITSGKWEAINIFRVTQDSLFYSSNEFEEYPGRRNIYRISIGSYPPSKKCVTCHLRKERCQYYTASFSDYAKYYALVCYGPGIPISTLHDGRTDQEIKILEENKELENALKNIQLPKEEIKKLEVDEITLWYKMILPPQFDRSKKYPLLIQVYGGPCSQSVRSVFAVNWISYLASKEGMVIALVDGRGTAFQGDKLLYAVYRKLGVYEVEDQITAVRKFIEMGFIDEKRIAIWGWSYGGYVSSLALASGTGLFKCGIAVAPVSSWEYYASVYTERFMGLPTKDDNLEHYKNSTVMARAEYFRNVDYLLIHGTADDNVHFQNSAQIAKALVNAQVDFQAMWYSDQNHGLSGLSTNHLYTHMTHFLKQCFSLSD

rhPREP = biological target: T2, rhPREP (Homo sapiens, UniProt P48147); test: Probe cleavage by recombinant human PREP; assay type: biochemical; settings: probe 5 μM, enzyme 0.1 μg/ml, read 480/530 nm
T2 sequence (P48147 1-710): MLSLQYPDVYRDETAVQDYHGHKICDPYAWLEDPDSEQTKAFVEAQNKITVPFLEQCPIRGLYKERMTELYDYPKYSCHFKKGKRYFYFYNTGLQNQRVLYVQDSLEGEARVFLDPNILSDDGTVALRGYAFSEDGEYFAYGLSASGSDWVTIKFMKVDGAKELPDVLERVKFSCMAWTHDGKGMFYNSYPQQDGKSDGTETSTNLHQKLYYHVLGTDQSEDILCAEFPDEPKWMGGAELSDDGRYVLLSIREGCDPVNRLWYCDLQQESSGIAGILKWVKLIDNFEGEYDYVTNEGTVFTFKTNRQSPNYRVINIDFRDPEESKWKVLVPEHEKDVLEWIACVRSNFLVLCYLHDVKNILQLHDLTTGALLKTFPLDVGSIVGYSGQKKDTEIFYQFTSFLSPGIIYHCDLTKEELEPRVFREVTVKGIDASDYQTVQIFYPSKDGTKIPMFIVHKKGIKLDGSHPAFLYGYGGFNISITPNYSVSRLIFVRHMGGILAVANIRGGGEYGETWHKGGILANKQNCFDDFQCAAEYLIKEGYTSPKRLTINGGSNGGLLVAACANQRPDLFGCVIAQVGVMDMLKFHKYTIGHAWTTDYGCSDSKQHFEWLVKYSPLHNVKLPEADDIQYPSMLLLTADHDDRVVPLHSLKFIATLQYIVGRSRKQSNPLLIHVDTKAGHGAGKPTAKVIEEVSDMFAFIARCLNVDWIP

rhDPPIV = rhDPPIV (Homo sapiens, UniProt P27487); test: Probe cleavage by recombinant human DPPIV (exopeptidase activity); assay type: biochemical; settings: probe 5 μM, enzyme 0.1 μg/ml, read 480/530 nm
Chain of rhDPPIV (P27487 whole entry): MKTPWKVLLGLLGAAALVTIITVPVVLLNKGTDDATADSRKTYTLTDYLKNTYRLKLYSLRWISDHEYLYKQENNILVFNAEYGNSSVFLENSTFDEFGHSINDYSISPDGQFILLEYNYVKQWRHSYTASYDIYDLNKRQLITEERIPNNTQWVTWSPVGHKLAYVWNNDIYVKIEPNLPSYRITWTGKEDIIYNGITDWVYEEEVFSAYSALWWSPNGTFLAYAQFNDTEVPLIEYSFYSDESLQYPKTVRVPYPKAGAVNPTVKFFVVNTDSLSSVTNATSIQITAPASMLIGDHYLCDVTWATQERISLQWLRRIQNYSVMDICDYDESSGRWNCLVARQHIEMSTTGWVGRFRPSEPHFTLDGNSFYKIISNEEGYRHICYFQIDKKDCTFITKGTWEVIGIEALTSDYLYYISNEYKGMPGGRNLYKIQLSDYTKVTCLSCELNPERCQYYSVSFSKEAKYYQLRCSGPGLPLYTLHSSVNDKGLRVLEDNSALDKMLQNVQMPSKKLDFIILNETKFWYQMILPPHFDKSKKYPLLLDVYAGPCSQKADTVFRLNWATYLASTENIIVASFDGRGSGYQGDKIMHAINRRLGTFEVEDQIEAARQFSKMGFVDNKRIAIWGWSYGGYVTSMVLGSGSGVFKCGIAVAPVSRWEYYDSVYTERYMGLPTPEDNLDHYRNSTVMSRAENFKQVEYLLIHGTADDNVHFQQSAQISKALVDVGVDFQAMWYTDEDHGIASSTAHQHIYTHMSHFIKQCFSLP

Row | Compound | cleavage by rhFAP (rhFAP) | signal (relative fluorescence intensity) with rhFAP (rhFAP) | FAP specificity (over PREP) (rhFAP) | cleavage by rhPREP (rhPREP) | further results
1 | CC(C)[C@H](NC(=O)[C@@H](N)CCCCNC(=O)c1ccccc1N=Nc1ccc(N(C)C)cc1)C(=O)N[C@H](CO)C(=O)N1CCC[C@H]1C(=O)N[C@@H](CC(N)=O)C(=O)N[C@@H](CCC(N)=O)C(=O)NCC(=O)N[C@@H](CCCCNC(=O)c1ccc2c(c1)C(=O)OC21c2ccc(O)cc2Oc2cc(O)ccc21)C(=O)NCCOCCOCC(=O)N[C@H](CCCCN)C(=O)NCCOCCOCC(=O)N[C@H](CCCCN)C(=O)NCCOCCOCC(=O)N[C@H](CCCCN)C(N)=O [FAP3, Lys(MethylRed)-Val-(D)Ser-Pro-Asn-Gln-Gly-Lys(5-FAM)-[Peg2-(D)Lys]3-NH2] (H-K(X1)V[dS]PNQGK(5FAM)[AEEA][dK][AEEA][dK][AEEA][dK]-NH2) | – | – | – | – | clinical signs [1]: no clinical signs; deaths [1]: no deaths; differences in body weights, body weight gains, food consumption, haematology, coagulation, clinical chemistry, organ weights and macroscopic and microscopic examinations ([1]; compared to a control group): no differences
2 | CC(C)[C@H](N)C(=O)N1CCC[C@H]1B(O)O [Val-boroPro] | – | – | – | – | inhibition of FAP3 signal in CAFs [2]: inhibition of signal; inhibition of FAP3 signal in CAFs ([2]; listed as VBP): signal was abrogated; inhibition of FAP3 intensity and lifetime change in NSCLC tissue [3]: inhibition; also recorded: abrogated
3 | FAM-Peg2-Gly-Pro-Gly-(D)Pro-(D)Asn-Gln-Lys(MethylRed)-NH2 [FAP1DLi-FAM] | lower rate of cleavage; also recorded: FAP activity was significantly reduced | – | – | cleaves; also recorded: partial reduction in activity | cleavage by rhPREP (rhPREP; listed as FAP1 DLi-FAM): still demonstrated PREP cleavage; cleavage by rhDPPIV (exopeptidase activity) (rhDPPIV): Neither FAP1Li-FAM or FAP1 DLi-FAM are cleaved
4 | FAM-Peg2-Gly-Pro-Gly-Pro-Asn-Gln-Lys(MethylRed)-NH2 [FAP1Li-FAM] | cleaved rapidly; also recorded: endopeptidase activity | signal intensity of FAP1 is higher | – | cleaved more rapidly; also recorded: endopeptidase activity | cleavage by rhDPPIV (exopeptidase activity) (rhDPPIV): Neither FAP1Li-FAM or FAP1 DLi-FAM are cleaved; also recorded: did not cleave
5 | FAP on cancer associated fibroblasts (CAFs) from NSCLC patient samples | – | – | – | – | cleavage of FRET probe on a CAF monolayer (fluorescence 480/530 nm, one hour) (FAP3): FAP3 was cleaved by FAP^+CAFs, with inhibition of signal when co-incubated with Val-boroPro
6 | MMP-13 (recombinant enzyme) | – | – | – | – | cleavage of FRET probe by recombinant enzyme (fluorescence) (FAP3): demonstrating no activity

Continued, in another order:

Row | cleavage by rhFAP (rhFAP) | signal (relative fluorescence intensity) with rhFAP (rhFAP) | FAP specificity (over PREP) (rhFAP) | Compound | cleavage by rhPREP (rhPREP) | further results
7 | – | reduced signal | FAP specificity over PREP | Lys(MethylRed)-(D)Ala-Pro-Ser-Lys(5-FAM)-[Peg2-(D)Lys]3-NH2 [FAP2BD-Ala] | – | –
8 | highest rate of cleavage | – | demonstrates FAP specificity | Lys(MethylRed)-(D)Ser-Pro-Ser-Lys(5-FAM)-[Peg2-(D)Lys]3-NH2 [FAP2CD-Ser] | without PREP cleavage | signal (relative fluorescence intensity) with rhFAP (rhFAP; listed as D-Ser): reduced signal; FAP specificity (over PREP) (rhFAP; listed as D-Ser): FAP specificity over PREP
9 | – | reduced signal | FAP specificity over PREP | Lys(MethylRed)-(D)Thr-Pro-Ser-Lys(5-FAM)-[Peg2-(D)Lys]3-NH2 [FAP2DD-Thr] | – | –
10 | – | reduced signal | FAP specificity over PREP | Lys(MethylRed)-(β)Ala-Pro-Ser-Lys(5-FAM)-[Peg2-(D)Lys]3-NH2 [FAP2Fβ-Ala] | – | –
11 | FAP activity was absent | – | – | Lys(MethylRed)-Ala-Pro-Ser-Lys(5-FAM)-[Peg2-(D)Lys]3-NH2 [FAP2AAla] | is cleaved; also recorded: demonstrated cleavage by PREP | –
12 | loss of FAP activity | – | – | Lys(MethylRed)-D-Tyr-Pro-Ser-Lys(5-FAM)-[Peg2-(D)Lys]3-NH2 [FAP2ED-Tyr] | – | –
